Measured values taken from the supplement of paper PMC12636428.

Test system: Saccharomyces cerevisiae
Assay: transcriptional activation domain activity (GFP:mCherry ratio, weighted mean of sorted bins, harmonized to initial dataset scale) (arbitrary fluorescence ratio units); higher = stronger transcriptional activation
Conditions: beta-estradiol 1 µM; induction time 4 h
Method in brief: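 Protein tiles carrying barcodes and fused to an estradiol-inducible synthetic transcription factor were placed at the URA3 locus of yeast diploids with a GFP reporter. Following 4 hours at 30 °C in SC with 1 uM beta-estradiol, cells were sorted into 8 GFP:mCherry bins, barcodes were sequenced, and tiles with fewer than 50 reads were discarded. Activation activity is given as the read-weighted mean of bin median fluorescence, averaged across barcodes and linearly mapped to the initial dataset scale.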

Sequence	transcriptional activation domain activity
MARLLFIPIFVNLSFPHHKSYFFLTSMLTLLLQLYLLLSLCWLILLLPCLKDS	40400
FQPAVATPTVSIGLIYLIIMAFFSFSFFLPIHMKYIQPQGHPPLHFWQLIIWR	68900
AKNLKYLFKVVLSMKGVPSFESSCKIKLLGIHFYYDQVYVYSLSMPMWDVFVF	73300
MMAPSCSICLPLVLPPLLCQIFSPLILSLFPYPLHCLCMLFFQLIYMPLFFFF	68200
KQYCVRPNSGRIEPGKDVEVQILLQAMKEDPPLDAKCRDKFLVQSVAVSADKE	40700
RKPEPAGEKAEGAQSGGEGQNGEGRRRGGGRGRGRARGRGGRGGRGGRGQRNA	< 6570
MSAATATKPPATGTTPRREATSRASAPSPAAASRTPARSSTPTATASATTSSP	18000
SAEHQTEAYESDGGRQCVRLLLTSYCSPILIVALHPVLPGRFLCVVKLATQKS	39900
AAGGSSSQAQITVNPGAKAEEEAEEDEGQLVQRMARRGIKSHVFVGSEIVQIP	33900
MEFSFTMVGIFYFLYSLAWSFSFLFFISYDHSLAGLVTIVKAFLISYYFFIFL	26200
LREGGVLAVDGTSVGSVEVIYSYSIVVHTRITFRVVARVGRCLVVCLVRWDFY	38200
NSTIPLDFMPRDALHGFDWSEEDDMSDGLPFLKTDPNNNGFFGDGSLLCILRS	109000
MNGDRDSGRSRDHYSSRGDRDDRRDRDRDRRRRSRSPGHRSSRRDYEVDTYSS	45700
LFATLLKLRVDQLLIMMDPTDLIRSILLSNENHQVLSALDFCWTLMHSVFPLL	78100
MEWHLLGSCLAGLVWGVFYIFFFFAACLIGFFPYHYHYLLLLLVLLTTNILFV	49500
SSSRRRSQSPAAEASRSRRERSRDRSDAEDEGGSRSGSRRRRRRGSAEPREED	41600
RKAEEEEEEEAEAKAEKKKPAHGVPFEGTSKSARARARKRAKKEAEAAAATPA	17800
QVKGNAATLVVRSLALNADLCKLVECLWFLDRYVLVEGKHWAAALPRMKNLWF	32200
YQTGYFSEAHFFLFFLFFYFRKSFSFQSNCISYTLPFGLLPIFFSTTIVLFWF	66400
PSASLSFVSFFFFFLFLPLTFSSSYFFFLPFSSFPLFSSLSSTHIWSFLLSPL	39800
VTLVKRVDLFWYFVPNSVCWSCVVERSIALDVAERYLGRETNATPPWIRGLLP	32500

Sequence	transcriptional activation domain activity
DSDTRRRGGEGGHRMRSSIACTRCRRSKIKCENQGVGSQCKACHGQGRECTYP	31300
IGMQLLLTWAYIRLNPFAVYSSPYIILFSFWSLGYLVLVYTLTLPSSLPFYHS	46800
RKSAATEEKEEKKEAPKAKRAKKAKEPEPEVEAEAEAAAEKVEEVKEKKKPGR	24800
AGKKTVTSEEAEVKVEVEAEVGVEVDIEPAAAKKPAKKTKAKVKTIAEEEVKV	31900
VGLAIYCVSQHLMIPSATELICMYPVVNSTIGLITYYYLIFSFLFGIMIITYC	64600
DNAHVLQEYLAVFRHLLSYHDPKLSSHMETIGFMPDLYAIPWFLTLFTHVFPL	58600
VIVIVMLFFLFYFNRLLGFVISKIVSYWTWKLYSAHIEIESIKFALLGGRISF	55200
SFSVLNLNLGKIENDGNESNEDYLGNEKFYLNEILPDEESKLRWKRVFENSEN	52600
GSSAEGEGDKEKTAVKRKRDSQVTGQQQQQQQQRADSSNRATSRKRRKTNKEG	60100
GEEKPKPVRRQRQPKDPNAPPPQRKKRKTAAEKAAEAAAAASTPTPAPAPAPA	13600
IELRARVFNYSNMHALKRCTFRLNRFETAFNFKLLWLFFVYYTRGIEVNRRNL	58600
GAKEEGGKKEAGGEKKEGSGKEGAKEGGEKGAKEGGEKKEGGEKGEGKEGGEG	20300
RDRGDSHRRHHHRSGSDDERRHRSDRRAREKDGDRSRSHRSSRHADEREERDE	17600
MQNKIVQALNWVCVDLNPPLTSFYFSPFFSFFPTLSSCFNTPLFFFLFSSFFF	61800
IKVQYKGGLIGHQFKDLAQIMSFILYDLGPDTLIECWVRLGWFMSLLWYPKIQ	58700
PINAAISNLMLGMLLFCGSLYTLVTFLPIFHSNCPYYTPLSSPWWRILRALGV	46000
FARVLLNGWFRTFHKVVSTAECVAWLVLFLPYAIGVLLVVRCVLGFHDIPKPK	45500
GLCRSGELLLPGAQYHRNPAVRKAWPGIFKWTRRNAMDVIATVWFWLTRADGL	51100
FGWHIYKKIGADLAMRGKRSLSPLISSSPRLADRYKMYQIFMMLLKLDFFFFL	77900
MTSYVHQALVRFIGVTLTYQEYKEKLGRSFYLRNLAENTTMLGFLCWVNILHF	33800
MHKCCLLDFLMLSTNYADVFYFHKLCIILTSFFSRLNPLLSIGLNLLLFCLLI	57000
